In article PMC9716568, “The structure of His-tagged Geobacillus stearothermophilus purine nucleoside phosphorylase reveals a ‘spanner in the works’” (Acta Crystallographica. Section F, Structural Biology …, 2022):

Target: the molecule itself
Assay: crystal structure; His-GsePNPase crystallized without ligands, 25 mg/ml in 50 mM HEPES pH 7.6, 100 mM NaCl, sitting drop, 291 K; three chains in the asymmetric unit, the hexamer generated by crystallographic symmetry; 1.72 Å

B1: N-terminally His-tagged purine nucleoside phosphorylase from Geobacillus stearothermophilus (enzyme)
chain: MHHHHHHSSGLVPRGSGMKETAAAKFERQHMDSPDLGTGSENLYFQGAMMSVHIGAKAGEIAERILLPGDPLRAKYIAETFLEGAVCYNEVRGMLGFTGTYKGERISVQGTGMGVPSISIYVNELIQSYGVKTLIRVGTCGAIQPDVRVRDVILAMSASTDSNMNRLIFRGRDYAPTADFHLLRTAYEVGVEKGLALKVGNVFTADMFYNDEPNWETWARYGVLAVEMETAALYTLAAKFGCRALSVLTVSDHILTGEETTAEERQMTFNEMIEVALEAAIRNGA
notes: hexameric purine nucleoside phosphorylase of Geobacillus stearothermophilus, KEGG GT50_19015, the open reading frame; the printed residue numbers (His4, Arg43, Arg87, Asp203) count from the first Met of this part; The whole construct as printed has 285 residues; The tag was not cleaved in the crystallized protein; also called His-GsePNPase; GsePNPase; source: E. coli BL21 (DE3), purified (IMAC on …)
Q: For B1, which “stoichiometry N” value is on record?
A: The value was 6.
